Experimental data taken from patent US20170260257A1 (GREEN CROSS, published 2017).

Experiments:
[1] = biological target: G145R HBsAg mutant of patient W** (HBV recurred after liver transplantation) (hepatitis B virus); assay: sandwich ELISA: plate coated with the antibody (immobilized antibody rHBIG), patient blood, detection with sheep anti-HBsAg/peroxidase
[2] = biological target: G145R HBsAg mutant of patient B** (HBV recurred after liver transplantation) (hepatitis B virus); assay: as above
[3] = biological target: G145R HBsAg mutant of patient C** (HBV recurred after liver transplantation) (hepatitis B virus); assay: as above
[4] = biological target: T1, G145R HBsAg mutant of patient S** (HBV recurred after liver transplantation) (hepatitis B virus); assay: as above
T1 construct: Position 145 of the HBV surface protein

[5] = biological target: G145R HBsAg mutant of patient L** (HBV recurred after liver transplantation) (hepatitis B virus); assay: as above
[6] = biological target: HBsAg of YMDD mutant virus, patient blood sample YMDD #10 (hepatitis B virus); assay: sandwich ELISA: plate coated with the antibody, patient blood, detection with sheep anti-HBsAg/peroxidase
[7] = biological target: HBsAg of YMDD mutant virus, patient blood sample YMDD #5 (hepatitis B virus); assay: as above
[8] = biological target: HBsAg of YMDD mutant virus, patient blood sample YMDD #3 (hepatitis B virus); assay: as above
[9] = biological target: HBsAg of YMDD mutant virus, patient blood sample YMDD #12 (hepatitis B virus); assay: as above
[10] = biological target: HBsAg of YMDD mutant virus, patient blood sample YMDD #6 (hepatitis B virus); assay: as above
[11] = biological target: HBsAg of YMDD mutant virus, patient blood sample YMDD #4 (hepatitis B virus); assay: as above
[12] = biological target: HBsAg of YMDD mutant virus, patient blood sample YMDD #8 (hepatitis B virus); assay: as above
[13] = biological target: HBsAg of YMDD mutant virus, patient blood sample YMDD #14 (hepatitis B virus); assay: as above
[14] = biological target: HBsAg of YMDD mutant virus, patient blood sample YMDD #9 (hepatitis B virus); assay: as above
[15] = biological target: HBsAg of YMDD mutant virus, patient blood sample YMDD #1 (hepatitis B virus); assay: as above
[16] = biological target: HBsAg of YMDD mutant virus, patient blood sample YMDD #11 (hepatitis B virus); assay: as above
[17] = biological target: HBsAg of YMDD mutant virus, patient blood sample YMDD #7 (hepatitis B virus); assay: as above
[18] = biological target: HBsAg of YMDD mutant virus, patient blood sample YMDD #13 (hepatitis B virus); assay: as above
[19] = biological target: HBsAg mutant of patient LC 53 (liver cirrhosis) (hepatitis B virus); assay: as above
[20] = biological target: HBsAg mutant of patient CH 34 (chronic hepatitis) (hepatitis B virus); assay: as above
[21] = biological target: HBsAg mutant of patient CH 62 (chronic hepatitis) (hepatitis B virus); assay: as above
[22] = biological target: T2, HBsAg mutant of patient CH 15 (chronic hepatitis) (hepatitis B virus); assay: as above
T2 construct: Positions count on the S (surface) protein

[23] = biological target: HBsAg mutant of patient LC 59 (liver cirrhosis) (hepatitis B virus); assay: as above
[24] = biological target: HBsAg mutant of patient LC 98 (liver cirrhosis) (hepatitis B virus); assay: as above
[25] = biological target: HBsAg mutant of patient HCC 22 (hepatocellular carcinoma) (hepatitis B virus); assay: as above
[26] = biological target: HBsAg mutant of patient HCC 1 (hepatocellular carcinoma) (hepatitis B virus); assay: as above
[27] = biological target: HBsAg mutant of patient LC 32 (liver cirrhosis) (hepatitis B virus); assay: as above
[28] = biological target: HBsAg mutant of patient HCC 94 (hepatocellular carcinoma) (hepatitis B virus); assay: as above
[29] = biological target: HBsAg mutant of patient HCC 11 (hepatocellular carcinoma) (hepatitis B virus); assay: as above
[30] = biological target: HBsAg mutant of patient CH 75 (chronic hepatitis) (hepatitis B virus); assay: as above
[31] = biological target: HBsAg mutant of patient CH 32 (chronic hepatitis) (hepatitis B virus); assay: as above
[32] = biological target: HBsAg mutant of patient CH 33 (chronic hepatitis) (hepatitis B virus); assay: as above

B1: the antibody of the present invention comprising a heavy-chain variable region having amino acid sequence of SEQ ID NO: 2 and a light-chain variable region … (antibody, V domains shown)
VH: EVQLVESGGGLVKPGGSLRLSCSASGFSLTKYKMTWVRQAPGKGLEWVSSISSTSRDIDYADSVKGRFTISRDNAKNSLFLQMSSLRVDDTAVYYCTRDGWLWGWDVRSNYYYNALDVWGQGTTVTVSS
VL: DIVVTQSPSSLSASVGDRVTITCRASQGIYNSIAWYQQKPGKAPKLLLYSTSTLLSGVPSRFSGSGSGTDYTLTITNLQPEDFATYYCQQYFVTPETFGQGTKLEIKR
notes: Captured with goat anti-human IgG (Fc specific) agarose and compared with a human IgG1 isotype control, so a human IgG; also called rHBIG
[1]
  ELISA signal (name and unit not given): 2.66
[2]
  ELISA signal (name and unit not given): 3.08
[3]
  ELISA signal (name and unit not given): 2.47
[4]
  ELISA signal (name and unit not given): 2.53
[5]
  ELISA signal (name and unit not given): 2.72
[6]
  A450: 1.13 A450
[7]
  A450: 0.356 A450
[8]
  A450: 0.957 A450
[9]
  A450: 0.876 A450
[10]
  A450: 1.04 A450
[11]
  A450: 1.02 A450
[12]
  A450: 1.14 A450
[13]
  A450: 0.815 A450
[14]
  A450: 0.834 A450
[15]
  A450: 1.16 A450
[16]
  A450: 0.786 A450
[17]
  A450: 1.1 A450
[18]
  A450: 1.07 A450
[19]
  ELISA: 3.5
[20]
  ELISA: 1.37
[21]
  ELISA: 3.08
[22]
  ELISA: 3.06
[23]
  ELISA: 3.63
[24]
  ELISA: 3.55
[25]
  ELISA: 3.52
[26]
  ELISA: 3.61
[27]
  ELISA: 2.73
[28]
  ELISA: 3.56
[29]
  ELISA: 3.36
[30]
  ELISA: 2.93
[31]
  ELISA: 2.95
[32]
  ELISA: 2.83
